Measurements taken from patent publication US20210253725A1 (BIONTECH, published 2021).

T1: CD27 expressed on the cell surface of HT1080_CD27 cells (human, UniProt P26842 20-260)
T1 construct: whole, on cells; species not restated for the HT1080 transfectant
T1 sequence (looked up): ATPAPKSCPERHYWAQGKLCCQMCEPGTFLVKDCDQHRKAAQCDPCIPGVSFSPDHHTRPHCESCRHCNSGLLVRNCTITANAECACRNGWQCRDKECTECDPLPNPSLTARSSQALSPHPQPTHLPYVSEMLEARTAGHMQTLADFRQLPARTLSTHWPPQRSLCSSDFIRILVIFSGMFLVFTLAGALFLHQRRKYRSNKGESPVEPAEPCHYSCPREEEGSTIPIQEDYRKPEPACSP

T2: CD27 protein (His-tagged, Sino Biological Inc. 10039-H08B1) (human, UniProt P26842 20-192)
T2 construct: bought protein coated on ELISA plates; also called TNFRSF7; not shown: His tag
T2 sequence (looked up): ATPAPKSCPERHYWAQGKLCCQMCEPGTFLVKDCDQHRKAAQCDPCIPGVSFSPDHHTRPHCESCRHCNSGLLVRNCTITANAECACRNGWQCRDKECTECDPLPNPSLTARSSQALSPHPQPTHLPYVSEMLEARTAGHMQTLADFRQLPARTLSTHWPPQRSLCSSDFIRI


Assays:
[1] = biological target: T1, CD27 expressed on the cell surface of …; assay: HT1080_CD27 cells, imaging; note: test concentration or dose not given here
[2] = biological target: T1, CD27 expressed on the cell surface of …; assay: cell-based or functional assay
[3] = biological target: T1, CD27 expressed on the cell surface of …; assay: cell-based or functional assay; remark: listed apart in the source
[4] = biological target: T2, CD27 protein (His-tagged, Sino …); assay: ELISA, coated His-tagged CD27; note: test concentration or dose not given here
Throughout, for Functional assay Cross-linked by F(ab′)2 fragment IL-8: test concentration or dose not given here.
Throughout, for Functional assay IL-8: test concentration or dose not given here.

Binder	Cellular binding assay [RFU] [1] [RFU]	EC 50 (IL-8 release, cross-linked) [2] [µg/mL]	Functional assay Cross-linked by F(ab′)2 fragment IL-8 [3] [abs. corr.]	Functional assay IL-8 [3] [abs. corr.]	ELISA [abs. corr.] [4] [abs. corr.]
P018.S.05.A.F05 (as anti-CD27 antibody) (antibody, V domains shown, V regions on human Ig constant parts; also called AB27_92) VH: QSVEESGGRLVTPGTPLTLTCTVSGFSLSNYYMTWVRQAPGKGLEYIGIIGSGVSTYYANWAKGRFTISKASSTTVDLKMTSPTTEDTATYFCARDMYVGNWGDWGLWGQGTLVTVSS VL: AYDMTQTPASVEVAVGGTVTIKCQASQSISNNLNWYQQKPGQPPKLLIYSVSTLASGVPSRFKGSGSGTDYTLTISGVESVDAATYYCQQDYRIGDLDSAFGGGTEVVVK	11	0.376	2.21	0.189	2.31
P018.S.03.A.A02 (antibody, V domains shown) VH: QSVEESGGRLVTPGTPLTLTCTVSGFSLSSYDMTWVRQAPGEGLEWIGYINTDTTTYYASWAKGRFTISRTSTTVDLEITSPTTEDTATYFCARGNDPIYIDLWGQGTLVTVSS VL: AAVLTQTPSPVSAAVGGTVSISCQSSKSVINNNWLGWYQQKPGQPPKLLISYASTLASGVPSRFSGSGSGTQFTLTISDVQSDDAATYYCAGAYSPDSENAFGGGTEVVLK	–	0.835	–	–	–
P018.S.01.A.B04 (antibody, V domains shown) VH: QEQLEESGGRLVTPGGTLTLTCTASGFSLSSYDMSWVRQAPGKGLEWIGYIWSDGNTDYASWAAGRFTASRASTTVDLKMTSLTTEDTATYFCARGYTGFFLWGPGTLVTVSS VL: DVVMTQTPSSVSAAVGGTVTIKCQASQSIGSSYLSWYQQKPGQPPKLLIYKTSTLASGVPSRFKGSGSGTEFTLTISDLESDDAATYYCQCTYYGGSWRVAFGGGTEVVVK	–	0.856	–	–	–
P018.S.01.A.H02 (antibody, V domains shown) VH: QSVEESGGRLVTPGTPLTLTCTASGFSLSSYHMQWVRQAPGKGLEWIGIIYAGSGNTWYASWAKGRFTISKTSTTVDLKITSPTTEDTAAYFCARQPGGDASDTQLDLWGQGTLVTVSS VL: AAVLTQTASPVSAAVGGTVTINCQSSQSVFDHNQLSWFQHKPGQSPKLLIYRASTLASGVPSRFKGSGSGTQFTLTISDVQSDDAATYYCLGGYSSSSDTVFGGGTEVVVK	–	1.11	–	–	–
P018.S.01.A.D04 (antibody, V domains shown) VH: QEQLEESGGRLVTPGGTLTLTCTASGFSLSNYDMSWVRQAPGKGLEWIGYIWSDGNTDYASWAAGRFTASRASTTVDLKMTSLTTEDTATYFCARGYTGFFLWGPGTLVTVSS VL: DVVMTQTPSSVSTAVGDTVTIKCQASQSIGSSYLSWYQQKPGQPPKLLIYKTSTLASGVPSRFKGSGSGTEFTLTISDLESDDAATYYCQCTYYGGSWRVAFGGGTEVVVK	–	1.3	–	–	–
P018.S.01.A.F05 (antibody, V domains shown) VH: QEQLEESGGDLVKPEGSLTLTCTASGFSFSSSYWICWVRQAPGKGLEWIGCIITGRGNTYYANWAKGRFTISKTSSTTVTLQMTSLTAADTAIYSCARGPGGADPVNLWGPGTLVTVSS VL: DVVMTQTPASVSEPVGGTVTIKCQASQSIYSNLAWYQQKPGQPPKLLIYRASTLTSGVPSRFKGSGSGTQFTLTISDLESADAATYYCQCTYDGSSYVPNAFGGGTEVVVK	–	1.32	–	–	–
P018.S.04.A.F04 (antibody, V domains shown) VH: QSVEESGGRLVTPGTPLTLTCTVSGFSLSNYAMSWVRQAPGKGLEWIGIIYASGTTYYARWAKGRFTISRTSTTVDLKISSPTTEDTATYFCAREYDSYDYAYGSSIYAFDPWGPGTLVTVSS VL: AYDMTQTPSSVSAAVGGTVTIKCQASESIYSNLAWYQQKPGQRPKLLIYRASTLASGVSSRFKGSGSGTQFTLSISGVESADAATYYCQQGYSSSNVDNVFGGGTEVVVK	–	1.44	–	–	–
P018.S.01.A.H06 (antibody, V domains shown) VH: QEQLKESGGRLVKPDETLTITCTASGFSLSRYDMSWVRQAPGKGLEWIGSIWSDGDTDYANWAKGRFTISKTSTTVDLKITSPTTEDTATYFCARGYTAWSLWGPGTLVTVSS VL: ALVMTQTPSPVSAAVGGTVTISCQSSESVVGNNALSWFQQKPGQPPKLLNYQASTLASGVSSRFSGSGSGTQFTLTISGVQSDDAATYYCQGTYYSSGWYFAFGGGTEVVVK	–	2.35	–	–	–

Next, values leading:

Cellular binding assay [RFU] [1] [RFU]	EC 50 (IL-8 release, cross-linked) [2] [µg/mL]	Functional assay Cross-linked by F(ab′)2 fragment IL-8 [3] [abs. corr.]	Functional assay IL-8 [3] [abs. corr.]	ELISA [abs. corr.] [4] [abs. corr.]	Binder
113	0.387	2.25	2.19	3.09	P018.S.09.A.A06 (antibody, V domains shown, V regions on human Ig constant parts; also called AB27_146) VH: QEQLKESGGGLVQPGESLTLTCTASGFSLSSYYMSWVRQAPGKGLEWIGMISTGGSAYYANWARGRFTISRTSTTVDLKVTSLTTEDTATYFCARGWRYEDLWGQGTLVTVSS VL: AQVLTQTPSPVSAAVGSTVTINCQSSQTVYNNNYLAWYQQKPGQPPKLLIYDASNLASGVSSRFSGSGSGTQFTLTISDLESDDAATYYCQGTYYDNAWYHTFGGGTEVVVK
155	0.144	2.46	0.839	2.95	P018.S.09.A.A02 (antibody, V domains shown, V regions on human Ig constant parts; also called AB27_143) VH: QSVEESGGRLVTPGTPLTLTCTASGFSLSNFYMSWVRQAPGKGLEWIGIISTGGSAYYASWAKGRFTSSKTSTTVDLQITSPTTEDTATYFCARGSGTDGAWLYYGIDLWGPGTLVTVSS VL: DVVMTQTPASVEAAVGGTVTIKCQASENIGHALAWYQQKPGQPPKLLIYRTSTLASGVPSRFSGSGSGTQFSLTISDLDSADAATYFCQINYGGGSGGYFAFGGGTEVVVK
238	0.414	2.28	0.631	2.9	P018.S.10.A.C02 (antibody, V domains shown, V regions on human Ig constant parts; also called AB27_171) VH: QSVEESGGRLVTPGTPLTLTCTVSGIDLSNYAMSWVRQTPGKGLEWIGAIGIGGNTYYASWAKGRFTISRTSTMVDLKVASPTPEDTATYFCARHAGAGVVNWLDLWGQGTLVTVSS VL: DVVMTQTPASVSEPVGGTVTIKCQASQSIGSNLAWYQQKPGQPPKLLIYAASDLASGVPSRFSGSGSGTEFTLTISGVQSDDAATFYCQTYGSGSFSSFNLFGGGTEVVVK
133	1.27	2.32	0.273	2.89	P018.S.10.A.F04 (antibody, V domains shown, V regions on human Ig constant parts; also called AB27_180) VH: QSVEESGGRLVTPGTPLTLTCTASGFYLSSHYMSWVRQAPGKGLEWIGIIYATGIASYANWAKGRFTISKTSTTVSLKMTSPTTEDTATYFCARYDSQDYYGYGNLWGPGTLVTVSS VL: AYDMTQTPASVEVAVGGTVTIKCQASQNIYNNLAWYQQKPGQRPKLLIYRASTLASGVSSQFKGSGSGTEYTLTISGVESADAATYYCQQGYSVHDVYNTFGGGTEVVVK
198	0.513	2.06	1.02	2.81	P018.S.10.A.A03 (antibody, V domains shown, V regions on human Ig constant parts; also called AB27_163) VH: QSLEESGGRLVTPGTPLTLTCTVSGIDLSSYAMGWVRQAPGKGLEWIGTISTISNTYYASWANGRFTISKTSTTVDLKMTSLTASDTATYFCARGASNTINDYFNLWGQGTLVTVSS VL: DIVMTQTPASVSEPVGGTVTIKCQASQSVGNYLAWYQQKPGQPPKLLIYDASNLASGVSSRFKGSGFATEFILTISDLESTDAATYYCHSYVYSSGNVYNGFGGGTEVVVK
19	1.94	2.07	-0.032	2.24	P018.S.10.A.B03 (antibody, V domains shown, V regions on human Ig constant parts; also called AB27_168) VH: QSLEESGGRLVTPGTPLTLTCTASGFSLSSYDMGWVRQAPGKGLEWIGIISSSGSTYYASWAKGRFTISKTSSTTVDLKMTSLTTEDTATYFCARTSLDGNLWGQGTLVTVSS VL: AFEMTQTPSSVSEPVGGTVTIKCQASQSIYNYLSWYQQKPGQPPKLLIYDASALASGVPSRFKGSGSGTDFTLTISDLESADAATYYCQQDYSVSDVDNSFGGGTEVVVK
–	0.801	–	–	–	P018.S.07.A.C04 (antibody, V domains shown) VH: QEQLVESGGGLVQPEGSLTLTCTASGFSFSSRFWICWVRQAPGKGLEWIACIYGGSTSATYDASWAKGRFTISKTSSTTVTLQMTSLTAADTATYFCTRLPTYDAYVFNLWGPGTLVTVSS VL: AIVMTQTPSSKSVPVGATATINCQASESVFSNNYLSWYQQKPGRSPKLLIYEASKLASGVPSRFSGSGSGTQFTLTISDVVSDDAATYYCGGYKSNNVDGYAFGGGTEVVVK
–	1.02	–	–	–	P018.S.09.A.C03 (antibody, V domains shown) VH: QSVEESGGRLVTPGTPLTLTCTVSGFSLSSYGMIWVRQAPGKGLEWIGWISSNDNKYYARWAKGRFTISKTSTTVDLKMTSLTTEDTATYFCVRNGVYNTGNYFDLWGQGTLVTVSS VL: AQVLTQTPSSVSAAVGGTVTINCQASQSLYNNKNLAWYQQKPGQPPKFLIYTASSLASGVSSRFKGSGSGTQFTLTISDVQSDDAATYYCQGEFDCDSDDCFAFGGGTEVVVK
–	1.94	–	–	–	P018.S.08.A.G02 (antibody, V domains shown) VH: QSVEESGGRLVTPGTPLTLTCTVSGFSLSTYAMSWVRQAPGKGLEWIGMNTRSGIIYYASWAKGRFTISKTSTTVHLKITSPTTEDTATYFCARDLYADVSGYYLGLWGPGTLVTVSS VL: AQVLTQTPSSVSAAVGGTVTINCQASQSLYNNKNLAWYQQKPGQPPKLLIYYASTLASGVSSRFKGSGSGTQFTLTISDLESDDAATYYCQGEFICSSADCVVFGGGTAVVVK
